Source: article PMC9825171 (Nucleic Acids Research, 2022)

Legend:
RBPJ = settings: read-out: affinity for RBPJ; ref [19],[20]; cited from earlier work
RBPJ (53–474) = RBPJ (53–474) (Mus musculus, UniProt P31266); experiment: ITC binding of L3MBTL3 constructs and peptides to native RBPJ; settings: 25°C; for Kd / K: 50 mM sodium phosphate pH 6.5, 150 mM NaCl, one site binding model; for Kd: mean of at least three independent experiments; for K: mean of at least three independent experiments ± SD, NBD = no binding detected
[1] = pH 6.5, mean of at least three independent experiments ± SD

Chain of RBPJ (53–474) (P31266 53-474): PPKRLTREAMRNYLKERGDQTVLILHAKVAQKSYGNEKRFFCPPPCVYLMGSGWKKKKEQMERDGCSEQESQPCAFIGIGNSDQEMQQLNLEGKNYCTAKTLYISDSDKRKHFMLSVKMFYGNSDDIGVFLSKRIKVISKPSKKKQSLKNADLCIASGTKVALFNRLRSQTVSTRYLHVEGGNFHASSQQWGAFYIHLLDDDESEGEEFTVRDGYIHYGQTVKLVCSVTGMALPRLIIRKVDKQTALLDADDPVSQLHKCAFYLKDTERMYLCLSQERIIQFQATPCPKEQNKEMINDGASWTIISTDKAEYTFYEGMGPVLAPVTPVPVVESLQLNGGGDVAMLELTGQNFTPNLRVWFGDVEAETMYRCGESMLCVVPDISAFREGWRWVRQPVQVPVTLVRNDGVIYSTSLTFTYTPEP

| Molecule | Kd (RBPJ (53–474)) [nM] | ΔG° (RBPJ (53–474); [1]) [kcal/mol] | ΔH° (RBPJ (53–474); [1]) [kcal/mol] | –TΔS° (RBPJ (53–474); [1]) [kcal/mol] | binding to RBPJ, in words (RBPJ (53–474)) | Kd (RBPJ) [nM] | K (RBPJ (53–474)) |
| --- | --- | --- | --- | --- | --- | --- | --- |
| RITA1: corepressor, RBPJ interacting Tubulin associated protein 1 (protein, UniProt Q96K30 1-269, looked up) RBPJ-interacting and …: MKTPVELAVSGMQTLGLQHRCRGGYRVKARTSYVDETLFGSPAGTRPTPPDFDPPWVEKANRTRGVGKEASKALGAKGSCETTPSRGSTPTLTPRKKNKYRPISHTPSYCDESLFGSRSEGASFGAPRMAKGDAAKLRALLWTPPPTPRGSHSPRPREAPLRAIHPAGPSKTEPGPAADSQKLSMGGLHSSRPLKRGLSHSLTHLNVPSTGHPATSAPHTNGPQDLRPSTSGVTFRSPLVTSRARSVSISVPSTPRRGGATQKPKPPWK | – | – | – | – | – | ~1000 | – |
| 1–197: human L3MBTL3 fragment, the N-terminus (1–197) (protein, UniProt Q96JM7 1-197, looked up, fragment) MTESASSTSGQEFDVFSVMDWKDGVGTLPGSDLKFRVNEFGALEVITDENEMENVKKATATTTWMVPTAQEAPTSPPSSRPVFPPAYWTSPPGCPTVFSEKTGMPFRLKDPVKVEGLQFCENCCQYGNVDECLSGGNYCSQNCARHIKDKDQKEERDVEEDNEEEDPKCSRKKKPKLSLKADTKEDGEERDDEMENK | 1500 | -7.9 ± 0.03 | -7.2 ± 0.1 | -0.7 ± 0.1 | – | – | 6.6 ± 0.3 × 10^5 M^−^1 |

Continued, in another order:

| Kd (RBPJ (53–474)) [nM] | ΔG° (RBPJ (53–474); [1]) [kcal/mol] | ΔH° (RBPJ (53–474); [1]) [kcal/mol] | –TΔS° (RBPJ (53–474); [1]) [kcal/mol] | binding to RBPJ, in words (RBPJ (53–474)) | Molecule | Kd (RBPJ) [nM] | K (RBPJ (53–474)) |
| --- | --- | --- | --- | --- | --- | --- | --- |
| – | – | – | – | no detectable binding | 198–523: human L3MBTL3 fragment, the MBT domains (198–523) (protein, UniProt Q96JM7 198-523, looked up, fragment) QDVRILRGSQRARRKRRGDSAVLKQGLPPKGKKAWCWASYLEEEKAVAVPAKLFKEHQSFPYNKNGFKVGMKLEGVDPEHQSVYCVLTVAEVCGYRIKLHFDGYSDCYDFWVNADALDIHPVGWCEKTGHKLHPPKGYKEEEFNWQTYLKTCKAQAAPKSLFENQNITVIPSGFRVGMKLEAVDKKNPSFICVATVTDMVDNRFLVHFDNWDESYDYWCEASSPHIHPVGWCKEHRRTLITPPGYPNVKHFSWDKYLEETNSLPAPARAFKVKPPHGFQKKMKLEVVDKRNPMFIRVATVADTDDHRVKVHFDGWNNCYDYWIDAD | – | NBD |
| 1900 | -7.7 ± 0.2 | – | 2.9 ± 1.8 | – | 1–523: human L3MBTL3 fragment, N-terminal region through the MBT domains (residues 1–523) (protein, UniProt Q96JM7 1-523, looked up, fragment) MTESASSTSGQEFDVFSVMDWKDGVGTLPGSDLKFRVNEFGALEVITDENEMENVKKATATTTWMVPTAQEAPTSPPSSRPVFPPAYWTSPPGCPTVFSEKTGMPFRLKDPVKVEGLQFCENCCQYGNVDECLSGGNYCSQNCARHIKDKDQKEERDVEEDNEEEDPKCSRKKKPKLSLKADTKEDGEERDDEMENKQDVRILRGSQRARRKRRGDSAVLKQGLPPKGKKAWCWASYLEEEKAVAVPAKLFKEHQSFPYNKNGFKVGMKLEGVDPEHQSVYCVLTVAEVCGYRIKLHFDGYSDCYDFWVNADALDIHPVGWCEKTGHKLHPPKGYKEEEFNWQTYLKTCKAQAAPKSLFENQNITVIPSGFRVGMKLEAVDKKNPSFICVATVTDMVDNRFLVHFDNWDESYDYWCEASSPHIHPVGWCKEHRRTLITPPGYPNVKHFSWDKYLEETNSLPAPARAFKVKPPHGFQKKMKLEVVDKRNPMFIRVATVADTDDHRVKVHFDGWNNCYDYWIDAD | – | 5.4 ± 0.9 × 10^5 M^−^1 |
